The values below come from the supplement of paper PMC9112550, “Optimization of the antimicrobial peptide Bac7 by deep mutational scanning” (BMC Biology, 2022).
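Note: peptides expressed intracellularly from a pBAD plasmid library in pooled LB shake-flask culture, induced with 0.3% L-arabinose, DNA abundance read by NGS, three biological replicates, DESeq2 with apeglm shrinkage.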

The data set relates to Escherichia coli TOP10. Briefly: shrunken log2 fold change of peptide-encoding DNA abundance (4.5 h post-induction vs induction); higher = less antimicrobial activity (less host growth inhibition). As to conditions: time post-induction: 4.5 h; library: site-saturation at positions 5, 18, 19, 20.
Take RRIRNRPPRLPRPRPRPWGCPRP: the “shrunken log2 fold change” value was -0.00572.
In the case of RRIRPRPPRLPRPRPRPTYGPRP, the “shrunken log2 fold change” value was -0.171.
Then RRIRNRPPRLPRPRPRPDMQPRP, with -0.0295; and RRIRSRPPRLPRPRPRPVYAPRP, with 0.0491; and RRIRARPPRLPRPRPRPYRKPRP, with -0.502.
For RRIRWRPPRLPRPRPRPMQIPRP, the “shrunken log2 fold change” value was determined as 0.0922.
Then RRIRARPPRLPRPRPRPLTFPRP, with -0.203.
Consider RRIRIRPPRLPRPRPRPGWTPRP, for which the “shrunken log2 fold change” value came out at 0.11.
For RRIRMRPPRLPRPRPRPARCPRP, the “shrunken log2 fold change” value was found to be 1.16.
The same measure for RRIRCRPPRLPRPRPRPFPWPRP: -0.361.
Regarding RRIRRRPPRLPRPRPRPEYAPRP, the “shrunken log2 fold change” value is 0.0407.
For the sequence RRIRMRPPRLPRPRPRPKADPRP, the “shrunken log2 fold change” value came to 2.35.
As to RRIRSRPPRLPRPRPRPWMPPRP, the “shrunken log2 fold change” value was -0.433.
Then RRIRSRPPRLPRPRPRPWHFPRP, with -0.0226; and RRIRSRPPRLPRPRPRPHNFPRP, with -0.49; and RRIRHRPPRLPRPRPRPSLGPRP, with 0.165.
The same measure for RRIRGRPPRLPRPRPRPWLGPRP: 0.245; for RRIRDRPPRLPRPRPRPVLYPRP: -0.166.
Consider RRIRYRPPRLPRPRPRPPVWPRP, for which the “shrunken log2 fold change” value is 0.0256.
Then RRIRTRPPRLPRPRPRPKVIPRP, with -0.503.
As to RRIRNRPPRLPRPRPRPCDVPRP, the “shrunken log2 fold change” value amounted to 0.0235.
RRIRQRPPRLPRPRPRPQNGPRP: the “shrunken log2 fold change” value is 0.111.
The same measure for RRIRARPPRLPRPRPRPQNSPRP: -0.23; for RRIRIRPPRLPRPRPRPCQGPRP: -0.0156; for RRIRWRPPRLPRPRPRPGSHPRP: 0.0507.
Turning to RRIRGRPPRLPRPRPRPQIHPRP, the “shrunken log2 fold change” value is 0.32.
With RRIRFRPPRLPRPRPRPQCAPRP, the “shrunken log2 fold change” value stood at 0.057.
Then RRIRVRPPRLPRPRPRPHQSPRP, with -0.23; and RRIRCRPPRLPRPRPRPFRSPRP, with -0.142.
For RRIRSRPPRLPRPRPRPGCCPRP, the “shrunken log2 fold change” value was found to be 0.396.
As to RRIRDRPPRLPRPRPRPDNVPRP, the “shrunken log2 fold change” value was -0.273.
RRIRSRPPRLPRPRPRPRRKPRP: the “shrunken log2 fold change” value was determined as 0.207.
Then RRIRPRPPRLPRPRPRPTGAPRP, with 0.55.
Then RRIRPRPPRLPRPRPRPYFMPRP, with -0.555.
On to RRIRFRPPRLPRPRPRPSQYPRP, for which the “shrunken log2 fold change” value was -0.292.
Then RRIRWRPPRLPRPRPRPHWTPRP, with -0.158; and RRIRDRPPRLPRPRPRPSCSPRP, with -0.253; and RRIRMRPPRLPRPRPRPTWIPRP, with 0.0438.
Then RRIRHRPPRLPRPRPRPIVYPRP, with -0.452.
Then RRIRVRPPRLPRPRPRPLDNPRP, with -0.0763; and RRIRVRPPRLPRPRPRPECAPRP, with 0.376; and RRIRARPPRLPRPRPRPYETPRP, with -0.0398.
For the sequence RRIRHRPPRLPRPRPRPWVWPRP, the “shrunken log2 fold change” value was 0.296.
The same measure for RRIRQRPPRLPRPRPRPMNHPRP: -0.337; for RRIRERPPRLPRPRPRPHVNPRP: -1.04; for RRIRIRPPRLPRPRPRPYTSPRP: -0.434.
As for RRIRSRPPRLPRPRPRPDPPPRP, the “shrunken log2 fold change” value is 0.746.
Turning to RRIRERPPRLPRPRPRPHCRPRP, the “shrunken log2 fold change” value is -0.168.
In the case of RRIRNRPPRLPRPRPRPEYVPRP, the “shrunken log2 fold change” value is -0.05.
The same measure for RRIRRRPPRLPRPRPRPFANPRP: 0.00652.
Then RRIRRRPPRLPRPRPRPAGFPRP, with 0.439.
For the sequence RRIRIRPPRLPRPRPRPTSLPRP, the “shrunken log2 fold change” value was -0.14.
The same measure for RRIRIRPPRLPRPRPRPSWFPRP: -0.529; for RRIRGRPPRLPRPRPRPYGLPRP: 0.0992.
For RRIRKRPPRLPRPRPRPRWMPRP, the “shrunken log2 fold change” value was found to be 0.273.
The same measure for RRIRDRPPRLPRPRPRPPMFPRP: 0.216.
In the case of RRIRRRPPRLPRPRPRPHQHPRP, the “shrunken log2 fold change” value came to 0.0389.
Consider RRIRNRPPRLPRPRPRPWMAPRP, for which the “shrunken log2 fold change” value was -0.28.
On to RRIRQRPPRLPRPRPRPPDYPRP, for which the “shrunken log2 fold change” value was 0.00906.
The same measure for RRIRERPPRLPRPRPRPDQNPRP: -0.108; for RRIRQRPPRLPRPRPRPMTIPRP: -0.227.
Regarding RRIRNRPPRLPRPRPRPMYPPRP, the “shrunken log2 fold change” value is -0.271.
Regarding RRIRCRPPRLPRPRPRPKRPPRP, the “shrunken log2 fold change” value was found to be 0.158.
The same measure for RRIRWRPPRLPRPRPRPKVPPRP: -0.0143.
Regarding RRIRFRPPRLPRPRPRPKMEPRP, the “shrunken log2 fold change” value was -0.028.
For RRIRCRPPRLPRPRPRPEHTPRP, the “shrunken log2 fold change” value was -0.0466.
For the sequence RRIRNRPPRLPRPRPRPMGNPRP, the “shrunken log2 fold change” value is -0.0658.
Then RRIRERPPRLPRPRPRPEQQPRP, with -0.0255.
For RRIRVRPPRLPRPRPRPCELPRP, the “shrunken log2 fold change” value was -0.286.
For RRIRDRPPRLPRPRPRPITEPRP, the “shrunken log2 fold change” value was -0.0351.
In the case of RRIRRRPPRLPRPRPRPLWAPRP, the “shrunken log2 fold change” value is 0.501.
Then RRIRCRPPRLPRPRPRPDFQPRP, with -0.294; and RRIRARPPRLPRPRPRPYHAPRP, with -0.0253.
Then RRIRERPPRLPRPRPRPEEYPRP, with -0.4; and RRIRWRPPRLPRPRPRPPYTPRP, with -0.137.
Take RRIRYRPPRLPRPRPRPVQMPRP: the “shrunken log2 fold change” value was -0.0524.
On to RRIRFRPPRLPRPRPRPIHWPRP, for which the “shrunken log2 fold change” value was -0.414.
With RRIRGRPPRLPRPRPRPCATPRP, the “shrunken log2 fold change” value is 2.7.
In the case of RRIRARPPRLPRPRPRPVFGPRP, the “shrunken log2 fold change” value amounted to 0.353.
In the case of RRIRIRPPRLPRPRPRPHFAPRP, the “shrunken log2 fold change” value was -0.135.
Turning to RRIRMRPPRLPRPRPRPYFEPRP, the “shrunken log2 fold change” value was -0.318.
With RRIRARPPRLPRPRPRPMQYPRP, the “shrunken log2 fold change” value was 0.00958.
The same measure for RRIRMRPPRLPRPRPRPPFCPRP: 0.0505; for RRIRFRPPRLPRPRPRPDWAPRP: 0.0526.
Consider RRIRERPPRLPRPRPRPDGDPRP, for which the “shrunken log2 fold change” value was determined as 0.03.
The same measure for RRIRRRPPRLPRPRPRPVYEPRP: 0.15; for RRIRSRPPRLPRPRPRPDQTPRP: 0.0249.
The same measure for RRIRNRPPRLPRPRPRPFINPRP: -1.59; for RRIRIRPPRLPRPRPRPREPPRP: 0.183.
Take RRIRERPPRLPRPRPRPTAHPRP: the “shrunken log2 fold change” value stood at 0.0481.
RRIRIRPPRLPRPRPRPMSFPRP: the “shrunken log2 fold change” value was -0.178.
